Source: patent US8933202B2, “AXL antibodies” (U3 Pharma GmbH, priority 2007, dated 2015)

Tests used:
[1] = system: NCI/ADR-RES ovarian cancer cells; experiment: TUNEL staining, combination with doxorubicin; type: cell-based, human; settings: 24 h
Description: As rat anti-Axl antibodies of the invention turned out to interfere with Gas6-mediated anti-apoptosis of serum-starved NIH3T3-Axl cl.7 fibroblasts, the question arose, whether antagonistic anti-Axl antibodies would synergize with chemotherapeutic agents in inducing apoptosis, thereby contributing to overcome drug resistance. In this example, NCI/ADR-RES (originally named MCF-7/AdrR) cells—a ovarian cancer cell line (Liscovitch and Ravid, 2007, Cancer Letters, 245, 350-352) displaying a high level of resistance to several agents including doxorubicin (Fairchild et al., 1987, Cancer Research, 47, 5141-5148; Xu et al., 2002, The Journal of Pharmacology and Experimental Therapeutics, 302, 963-971)—were incubated with the antagonistic anti-Axl antibody 11B7 and/or doxorubicin, and apoptosis rates were determined by TUNEL staining. In brief, 3×10^4 NCI/ADR-RES cells in normal growth medium were seeded per well of an 8-chamber culture slide (BD Falcon, cat#354118) which were pre-incubated with the same medium for 1 h at 37° C. The next morning, normal growth medium was removed and cells were washed with and cultured in serum-reduced (0.5% FCS) medium. In the evening, isotypic control antibody 1D5 or the antagonistic anti-Axl antibody 11B7 were added at final concentrations of 10 μg/ml each. In the morning of day 3, doxorubicin at final concentrations of 100 μM, 150 μM, or 200 μM was added, and cells were incubated at 37° C. After 24 h, cells were rinsed once with PBS, fixed with 4% formaldehyde in PBS (pH 7.5) for 20 min at room temperature, air-dried for 5 min, and stored at −20° C. Using the commercially available Fluorescein-FragEL™ kit (Oncogene, cat#QIA39, presently being distributed through Merck-Calbiochem), TUNEL staining was performed according to the supplier's manual instructions (chapter ‘Fluorescein-FragEL™ of cell preparations fixed on slides’, page 10). Applying fluorescence microscopy, cells were analyzed and photos were taken.

AXL = target: T1, AXL (Homo sapiens, UniProt P30530); experiment: AXL receptor tyrosine phosphorylation ELISA; type: cell-based; set-up: expressed in transfected cells; host or cells: NIH3T3-AXL cl.7 (pLXSN-hAXL) and NCI-H292 lung cancer cells (endogenous AXL); settings: 10 μg/ml antibody, 400 ng/ml Gas6; NIH3T3-AXL cl.7 fibroblasts and NCI-H292 lung cancer cells
T1 sequence (P30530 26-894): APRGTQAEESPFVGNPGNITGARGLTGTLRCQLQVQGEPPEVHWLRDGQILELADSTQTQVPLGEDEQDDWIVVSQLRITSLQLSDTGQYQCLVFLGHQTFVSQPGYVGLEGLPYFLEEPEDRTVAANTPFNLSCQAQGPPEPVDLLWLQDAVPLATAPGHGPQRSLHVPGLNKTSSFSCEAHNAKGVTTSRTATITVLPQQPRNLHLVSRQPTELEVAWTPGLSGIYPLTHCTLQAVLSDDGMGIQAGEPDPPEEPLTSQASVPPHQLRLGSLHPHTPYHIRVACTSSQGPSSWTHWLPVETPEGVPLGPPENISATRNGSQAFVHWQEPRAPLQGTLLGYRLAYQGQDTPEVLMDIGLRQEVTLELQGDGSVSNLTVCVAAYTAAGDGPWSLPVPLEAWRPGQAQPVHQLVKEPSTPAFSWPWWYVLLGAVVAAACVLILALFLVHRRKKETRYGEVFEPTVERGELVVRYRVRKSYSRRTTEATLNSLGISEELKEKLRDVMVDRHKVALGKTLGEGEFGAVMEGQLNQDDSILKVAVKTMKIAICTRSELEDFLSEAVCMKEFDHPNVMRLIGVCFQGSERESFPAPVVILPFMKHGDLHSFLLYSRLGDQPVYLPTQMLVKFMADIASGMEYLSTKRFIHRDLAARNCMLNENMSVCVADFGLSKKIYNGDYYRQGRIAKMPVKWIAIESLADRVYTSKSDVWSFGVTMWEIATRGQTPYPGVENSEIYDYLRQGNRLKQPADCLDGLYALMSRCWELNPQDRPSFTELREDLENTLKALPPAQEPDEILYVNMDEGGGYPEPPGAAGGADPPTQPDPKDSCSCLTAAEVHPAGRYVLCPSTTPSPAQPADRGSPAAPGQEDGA
Procedure: ELISA experiments were performed in order to investigate whether the rat anti-AXL antibodies of the invention are able to block ligand Gash-mediated activation of AXL. Gas6-mediated AXL activation was detected by increased receptor tyrosine phosphorylation. In brief, on day 1, 3×10^4 cells per well were seeded in normal growth medium in flat-bottom 96 well plates. The next day, growth medium was replaced by serum-free medium to starve cells over night for 24 h. Also over night, black Maxi-Sorp 96 well plates (Nunc) were coated with mouse anti-phospho-tyrosine antibody 4G10 at 2 μg/ml PBS and 4° C. On day 3, the 4G10 antibody solution was removed and Maxi-Sorp wells were blocked with PBS, 0.5% BSA for at lest 4 h at room temperature. […] Medium was then flicked out and cells were lysed in lysis buffer (50 mM HEPES, pH 7.5, 150 mM NaCl, 1 mM EDTA, 10% glycerine, and 1% Triton X-100) supplemented with phosphatase and protease inhibitors (10 mM Na4P2O7, 1 mM phenylmethylsulfonyl fluoride, 1 mM orthovanadate, 1 mM NaF, and 0.5% aprotinin) for 30 min on ice. […] Using a Victor plate reader (Perkin Elmer), the fluorescence of each well was collected at an excitation wavelength of 430 nm and an emission wavelength of 580 nm.

B1: 11B7: antagonistic rat anti-AXL monoclonal antibody, rat IgG1 (antibody, V domains shown)
VL: DIQMTQAPSSLPASLGDRVTITCRASQDIGNYLRWFQQKPGKSPRLMISGATNLAAGVPSRFSGSRSGSDYSLTISSLESEDMADYYCLQSKESPWTFGGGTKLELK
VH: EVQLQESGPGLVKPSQSLSLTCSVTGYSITSNYWGWIRKFPGDKMEWMGYITYSGSTSYNPSLKSRISITRDTSKNQFFLQLNSVTSEDTATYYCAITTFYYWGQGVMVTVSS
- apoptosis (TUNEL staining), co-incubation with 100 μM doxorubicin ([1]; 10 μg/ml 11B7 + 100 μM doxorubicin): No TUNEL staining, and hence no apoptosis
- apoptosis (TUNEL staining), co-incubation with 150 μM doxorubicin ([1]; 10 μg/ml 11B7 + 150 μM doxorubicin): substantial induction of apoptosis
- apoptosis (TUNEL staining), co-incubation with 200 μM doxorubicin ([1]; 10 μg/ml 11B7 + 200 μM doxorubicin, compared to control IgG antibody): significantly increased apoptosis rates
- ligand-mediated AXL activation (phosphorylation) (AXL): able to block or reduce ligand-mediated AXL activation
